B1: DEL K560–GFP (aa 341–370 of the neck coiled coil deleted) (domain or fragment, human, UniProt P33176 1-560, looked up)
chain: MADLAECNIKVMCRFRPLNESEVNRGDKYIAKFQGEDTVVIASKPYAFDRVFQSSTSQEQVYNDCAKKIVKDVLEGYNGTIFAYGQTSSGKTHTMEGKLHDPEGMGIIPRIVQDIFNYIYSMDENLEFHIKVSYFEIYLDKIRDLLDVSKTNLSVHEDKNRVPYVKGCTERFVCSPDEVMDTIDEGKSNRHVAVTNMNEHSSRSHSIFLINVKQENTQTEQKLSGKLYLVDLAGSEKVSKTGAEGAVLDEAKNINKSLSALGNVISALAEGSTYVPYRDSKMTRILQDSLGGNCRTTIVICCSPSSYNESETKSTLLFGQRAKTIKNTVCVNVELTAEQWGETVPIDEQFDKEKANLEAFTVDKDITLTNDKPATAIGVIGNFTDAERRKCEEEIAKLYKQLDDKDEEINQQSQLVEKLKTQMLDQEELLASTRRDQDNMQAELNRLQAENDASKEEVKEVLQALEELAVNYDQKSQEVEDKTKEYELLSDELNQKSATLASIDAELQKLKEMTNHQKKRAAEMMASLLK
B2: STABLE COIL K560–GFP (aa 343–370 replaced by four repeats of EIEALKA) (domain or fragment, human)
chain: MADLAECNIKVMCRFRPLNESEVNRGDKYIAKFQGEDTVVIASKPYAFDRVFQSSTSQEQVYNDCAKKIVKDVLEGYNGTIFAYGQTSSGKTHTMEGKLHDPEGMGIIPRIVQDIFNYIYSMDENLEFHIKVSYFEIYLDKIRDLLDVSKTNLSVHEDKNRVPYVKGCTERFVCSPDEVMDTIDEGKSNRHVAVTNMNEHSSRSHSIFLINVKQENTQTEQKLSGKLYLVDLAGSEKVSKTGAEGAVLDEAKNINKSLSALGNVISALAEGSTYVPYRDSKMTRILQDSLGGNCRTTIVICCSPSSYNESETKSTLLFGQRAKTIKNTVCVNVELTAEQWKKEIEALKAEIEALKAEIEALKAEIEALKAGETVPIDEQFDKEKANLEAFTVDKDITLTNDKPATAIGVIGNFTDAERRKCEEEIAKLYKQLDDKDEEINQQSQLVEKLKTQMLDQEELLASTRRDQDNMQAELNRLQAENDASKEEVKEVLQALEELAVNYDQKSQEVEDKTKEYELLSDELNQKSATLASIDAELQKLKEMTNHQKKRAAEMMASLLK

Biological target: the molecule itself
Assay: single-spot fluorescence intensity

Row | Protein | stoichiometry N
1 | B1 | 2
2 | B2 | 2

— article PMC2132664 (The Journal of Cell Biology, 1998)
